The results in this text go back to article PMC4033772 (The Journal of Cell Biology, 2014).

This data set concerns the molecule itself. Description: SEC + other: sucrose gradient sedimentation.

B1: FLAG-tagged Stu1 (natural protein, S. cerevisiae, UniProt P38198 1-1513, looked up)
chain: MSSFNNETNNNSNTNTHPDDSFPLYTVFKDESVPIEEKMALLTRFKGHVKKELVNESSIQAYFAALLFISGHYAYRSYPRLIFLSHSSLCYLIKRVAMQSPVQFNDTLVEQLLNHLIFELPNEKKFWLASIKAIEAIYLVNPSKIQAILANFLRRPSENQNGDYLNRIKSTLLTIDELIQINEKNNSNHLQLLRFFMLSFTNLLNNNLNEHANDDNNNVIIELIFDIMYKYLKMDDENSQDLIDGFINDLEVEKFKQKFISLAKSQDQHGSQEDKSTLFDEEYEFQLLLAEAKLPQLSNNLSSKDPAMKKNYESLNQLQQDLENLLAPFQSVKETEQNWKLRQSNIIELDNIISGNIPKDNPEEFVTVIKEVQLIELISRATSSLRTTLSLTALLFLKRLIHILNDQLPLSILDQIFVIFKNLLSSTKKISSQTAFHCLITLIIDINHFHNKLFQLSFLLINEKTVTPRFCSAILLRSFLIKFNDSNLSLNNSNTTSPTSKLENNIIYIEEWLKKGISDSQTTVREAMRLTFWYFYKCYPTNAKRLLSSSFSPQLKKATELAIPAHLNINYQVSRVSSTASASSATSRLYSHSSNNSSRKTSLLEQKRNYPSYAQPTQSSSTSLLNAPAVTAGGSVIASKLSNKLKTNLRSTSEYSSKENEKRARHHDSMNSVSNSNTKDNNNVTKRKVSAPPSSTAATKVSENYTNFDDFPSNQIDLTDELSNSYSNPLIKKYMDKNDVSMSSSPISLKGSNKLGEYETLYKKFNDASFPAQIKDALQYLQKELLLTSQQSSSAPKFEFPMIMKKLRQIMIKSPNDFKPFLSIEKFTNGVPLNYLIELYSINSFDYAEILKNRMNPEKPYELTNLIITIADLFNFLNANNCPNDFKLYYMKYKTTFFNYNFKLLLEIFRNLNIKHDNTLRSGTNDLMPKISMILFQIYGKEFDYTCYFNLIFEIYKFDNNRFNKLLADFDIVSTKMKICHELEKKDANFKVEDIISRESSVSFTPIDNKKSEGDEESDDAVDENDVKKCMEMTMINPFKNLETDKTLELKNNVGKRTSSTDSVVIHDDNDKDKKLSEMTKIVSVYQLDQPNPAKEEDDIDMENSQKSDLNLSEIFQNSGENTERKLKDDNEPTVKFSTDPPKIINEPEKLIGNGNENEKPDLETMSPIKINGDENMGQKQRITVKRERDVALTEQDINSKKMKLVNNKKSEKMHLLIMDNFPRDSLTVYEISHLLMVDSNGNTLMDFDVYFNHMSKAINRIKSGSFTMKHINYLIEPLITCFQNQKMTDWLTNENGFDELLDVAIMLLKSTDDTPSIPSKISSKSIILVHCLLVWKKFLNTLSENADDDGVSVRMCFEEVWEQILLMLNKFSDYGNEIYKLAQEFRDSLMLSHFFKKHSATRILSMLVTEIQPDTAGVKETFLIETLWKMLQSPTICQQFKKSNISEIIQTMSYFIMGTDNTSWNFTSAVVLARCLRVLQTTPDYTEQETERLFDCLPKNVFKMIMFIASNE
Consider B1, for which the stoichiometry N (commonly the number of molecules, sites or subunits per partner or assembly) is 2.
